Measurements taken from patent EP4567818A1 (Nanjing GenScript Biotech Co., Ltd., dated 2025).

What was measured:
[1] = target: T1, TNFRSF9 protein (also referred to as CD137 protein) (Homo sapiens (Human), UniProt Q07011 24-186); assay: ELISA on coated TNFRSF9, CHO-S expression supernatant diluted 100-fold
T1 construct: also called recombinant TNFRSF9 protein

[2] = target: T1, TNFRSF9 protein (also referred to as …); assay: indirect ELISA, purified antibody on coated recombinant TNFRSF9 (0.5 ug/ml)

OD450 (100-fold dilution) [1]: 3.33 OD450
EC50 [2]: 3.8 ng/mL
B1: rabbit monoclonal antibody 4C2-WTH before humanization (antibody, human IgG1, V domains shown)
VH: QSVEESGGRLVTPGTPLTLTCTVSGFSLGTFPIGWVRQAPGSGLEWIGIFNTDGSAAYASWARGRFTVFKNSTTVDLKMTSPTTEDTATYFCARINADYSGWYFGIWGPGTLVTVSS
VL: EMTQTPASVEVAVGGTVTIKCQASQSIYSYLAWYQQKPGQPPKPLIYEASKTPSGVPSRFKGSGSGTEYTLTISGVQCEDAATYYCQKGYSVSNVAFGGGTEVVVKR
notes: As tested it is a chimera: the original rabbit variable regions with the human IgG1 constant region, expressed from pcDNA3.4 in CHO-S cells; also called wild-type antibody; anti-CD137 rabbit antibody
